# Non-standard residues stand in square brackets, D forms with d. No end group written: not given here. pS = N[C@@H](COP(=O)(O)O)C(=O)O
# B1: ALLDGRVQL (peptide)
# peptide: ALLDGRVQL
# notes: gene: AGRN
# B2: YLARIQGFQV (peptide)
# peptide: YLARIQGFQV
# notes: gene: STAU2
# B3: ALSFSSSAGPGLLKA (peptide)
# peptide: ALSFSSSAGPGLLKA
# notes: gene: KRT7
# B4: SLQSFIHGV (peptide)
# peptide: SLQSFIHGV
# notes: gene: TMC7
# B5: KLWGQSIQL (peptide)
# peptide: KLWGQSIQL
# notes: gene: SWT1
# B6: YLFPETEFI (peptide)
# peptide: YLFPETEFI
# notes: gene: TBX3
# B7: TLGVIPESV (peptide)
# peptide: TLGVIPESV
# notes: gene: USP48
# B8: SLLRVGWSV (peptide)
# peptide: SLLRVGWSV
# notes: genes: BSCL2, HNRNPUL2
# B9: FLDPATPRV (peptide)
# peptide: FLDPATPRV
# notes: gene: TGIF1
# B10: VLKVFLENV (peptide)
# peptide: VLKVFLENV
# B11: HLLDSKVPSV (peptide)
# peptide: HLLDSKVPSV
# notes: gene: ITGB4
# B12: VILDKYYFL (peptide)
# peptide: VILDKYYFL
# notes: gene: TMPRSS4
# B13: ALFPHLLQPVL (peptide)
# peptide: ALFPHLLQPVL
# notes: gene: CSE1L
# B14: ILTSIQSLL (peptide)
# peptide: ILTSIQSLL
# notes: genes: UBE2A, UBE2B
# B15: NLDAATYQV (peptide)
# peptide: NLDAATYQV
# notes: gene: SLC35A3
# B16: GLALLYSGV (peptide)
# peptide: GLALLYSGV
# notes: gene: ATP6V0B
# B17: YTLSKTEFL (peptide)
# peptide: YTLSKTEFL
# notes: gene: S100A11
# B18: GMTELYFQL (peptide)
# peptide: GMTELYFQL
# notes: gene: PRKDC
# B19: SLLGGITVV (peptide)
# peptide: SLLGGITVV
# notes: gene: SPAG9
# B20: GLIDSLMAYV (peptide)
# peptide: GLIDSLMAYV
# notes: gene: PKP1
# B21: IITDLLRSV (peptide)
# peptide: IITDLLRSV
# notes: gene: FUBP1
# B22: TVGPGLLGV (peptide)
# peptide: TVGPGLLGV
# notes: gene: VWF
# B23: ALADGVPVAL (peptide)
# peptide: ALADGVPVAL
# notes: gene: AP5B1
# B24: YLIGLDPENLAL (peptide)
# peptide: YLIGLDPENLAL
# notes: gene: CROT
# B25: ILLDTPLFLL (peptide)
# peptide: ILLDTPLFLL
# notes: gene: SERHL2
# B26: SIAAYNPVV (peptide)
# peptide: SIAAYNPVV
# notes: gene: DHRS2
# B27: NLAGVYSEV (peptide)
# peptide: NLAGVYSEV
# notes: gene: DRG1
# B28: KVFGGFQVV (peptide)
# peptide: KVFGGFQVV
# notes: gene: HES1
# B29: FLIJLIISV (peptide)
# peptide: FLI[pS]LIISV
# notes: gene: TAS2R9
# B30: YLPDSLTQL (peptide)
# peptide: YLPDSLTQL
# notes: gene: LRRC1
# B31: GVALTVTGV (peptide)
# peptide: GVALTVTGV
# notes: gene: FLOT2
# B32: ILDEMRAQL (peptide)
# peptide: ILDEMRAQL
# notes: gene: OAS3
# B33: GLAHFVNEI (peptide)
# peptide: GLAHFVNEI
# notes: gene: ZMYM2
# B34: SLSDVRVIV (peptide)
# peptide: SLSDVRVIV
# notes: gene: RALGAPA2
# B35: ILEPSLYTV (peptide)
# peptide: ILEPSLYTV
# notes: gene: COPZ1
# B36: ALIGDDVGL (peptide)
# peptide: ALIGDDVGL
# notes: gene: C17orf85
# B37: SLDVVNLLV (peptide)
# peptide: SLDVVNLLV
# notes: gene: ANKRD50
# B38: SMFGAGLTV (peptide)
# peptide: SMFGAGLTV
# notes: gene: ATP6V0B
# B39: YILEGEPGKV (peptide)
# peptide: YILEGEPGKV
# notes: gene: SRP68
# B40: GLDPLGYEIQL (peptide)
# peptide: GLDPLGYEIQL
# notes: gene: NUP107
# B41: TLTSKLYSL (peptide)
# peptide: TLTSKLYSL
# notes: gene: UQCR10
# B42: WLSTSIPEA (peptide)
# peptide: WLSTSIPEA
# notes: gene: FASN
# B43: ALLDEQQVNVLL (peptide)
# peptide: ALLDEQQVNVLL
# notes: gene: ID1
# B44: ALASLENHV (peptide)
# peptide: ALASLENHV
# notes: gene: TRIM33
# B45: KLTNGIWVL (peptide)
# peptide: KLTNGIWVL
# notes: gene: AP1B1
# B46: SLFTGLRSI (peptide)
# peptide: SLFTGLRSI
# notes: genes: DUOX2, DUOX1
# B47: FLDDGNQMLL (peptide)
# peptide: FLDDGNQMLL
# notes: gene: DYNC2H1
# B48: FIPDFAVAI (peptide)
# peptide: FIPDFAVAI
# notes: gene: COL6A3
# B49: IQDPVIFYV (peptide)
# peptide: IQDPVIFYV
# notes: gene: GPR126
# B50: SLFDGIATGL (peptide)
# peptide: SLFDGIATGL
# notes: gene: DNMT3A
# B51: ALDPASISV (peptide)
# peptide: ALDPASISV
# notes: gene: DCUN1D1
# B52: NLHNSYYSV (peptide)
# peptide: NLHNSYYSV
# notes: gene: CCNG2
# B53: AMAELRVVV (peptide)
# peptide: AMAELRVVV
# notes: gene: CYP4F22
# B54: AVVSSVNTV (peptide)
# peptide: AVVSSVNTV
# notes: gene: SNCG
# B55: YLDEIPPKFSM (peptide)
# peptide: YLDEIPPKFSM
# notes: gene: TACSTD2
# B56: LLDLIQTKV (peptide)
# peptide: LLDLIQTKV
# notes: genes: AP2B1, AP1B1
# B57: FVFEPPPGV (peptide)
# peptide: FVFEPPPGV
# notes: gene: DYNC1H1
# B58: ILLQASVQV (peptide)
# peptide: ILLQASVQV
# notes: gene: TMPRSS4
# B59: RVISSVISV (peptide)
# peptide: RVISSVISV
# notes: gene: ELTD1
# B60: LLQEGEVYSA (peptide)
# peptide: LLQEGEVYSA
# notes: gene: PRPF8
# B61: FLTPPLLSV (peptide)
# peptide: FLTPPLLSV
# notes: gene: AP2A1
# B62: SLDKGTLYI (peptide)
# peptide: SLDKGTLYI
# notes: gene: PLBD1
# B63: GLWHGMFANV (peptide)
# peptide: GLWHGMFANV
# notes: gene: DIP2B
# B64: QMFEGQILDV (peptide)
# peptide: QMFEGQILDV
# notes: gene: AIM1L
# B65: FLIESKLLSL (peptide)
# peptide: FLIESKLLSL
# notes: gene: DRC1
# B66: GLYEGLDWL (peptide)
# peptide: GLYEGLDWL
# notes: genes: ARF3, TRIM23, ARF1, ARF4
# Columns and labels:
# HLA-A*02:01 [1] = molecular target: T1, HLA-A*02:01 (human); test: UV-ligand exchange + anti-b2m ELISA; ++++ = peptide exchange yield >75%
# T1 construct: MHC monomer first loaded with a UV-sensitive peptide, which is cleaved by UV and exchanged with the test peptide; captured on streptavidin plates; also called peptide-receptive MHC molecules
# Source text: (§1) Candidate peptides for T cell based therapies according to the present invention were further tested for their MHC binding capacity (affinity). The individual peptide-MHC complexes were produced by UV-ligand exchange, where a UV-sensitive peptide is cleaved upon UV-irradiation, and exchanged with the peptide of interest as analyzed. Only peptide candidates that can effectively bind and stabilize the peptide-receptive MHC molecules prevent dissociation of the MHC complexes. To determine the yield of the exchange reaction, an ELISA was performed based on the detection of the light chain (β2m) of stabilized MHC complexes. The assay was performed as generally described in Rodenko et al. (Rodenko et al., 2006).
# (§2) 96 well MAXISorp plates (NUNC) were coated over night with 2 ug/ml streptavidin in PBS at room temperature, washed 4× and blocked forth at 37° C. in 2% BSA containing blocking buffer. Refolded HLA-A*02:01/MLA-001 monomers served as standards, covering the range of 15-500 ng/ml. Peptide-MHC monomers of the UV-exchange reaction were diluted 100 fold in blocking buffer. Samples were incubated for 1 h at 37° C., washed four times, incubated with 2 ug/ml HRP conjugated anti-β2m for 1 h at 37° C., washed again and detected with TMB solution that is stopped with […]. Absorption was measured at 450 nm. Candidate peptides that show a high exchange yield (preferably higher than 50%, most preferred higher than 75%) are generally preferred for a generation and production of antibodies or fragments thereof, and/or T cell receptors or fragments thereof, as they show sufficient avidity to the MHC molecules and prevent dissociation of the MHC complexes.
# HLA-A*02:01 [2] = molecular target: T1, HLA-A*02:01; test: UV-ligand exchange + anti-b2m ELISA; +++ = peptide exchange yield >50
# Source text: as §1, §2
Binder,peptide exchange yield (HLA-A*02:01 [1]) [%],peptide exchange yield (HLA-A*02:01 [2]) [%]
B1,> 75,–
B2,> 75,–
B3,–,50 to 75
B4,–,50 to 75
B5,> 75,–
B6,–,50 to 75
B7,> 75,–
B8,> 75,–
B9,–,50 to 75
B10,> 75,–
B11,–,50 to 75
B12,> 75,–
B13,> 75,–
B14,> 75,–
B15,–,50 to 75
B16,> 75,–
B17,> 75,–
B18,–,50 to 75
B19,> 75,–
B20,> 75,–
B21,> 75,–
B22,–,50 to 75

Binder,peptide exchange yield (HLA-A*02:01 [1]) [%],peptide exchange yield (HLA-A*02:01 [2]) [%]
B23,–,50 to 75
B24,–,50 to 75
B25,–,50 to 75
B26,> 75,–
B27,> 75,–
B28,> 75,–
B29,–,50 to 75
B30,> 75,–
B31,> 75,–
B32,–,50 to 75
B33,> 75,–
B34,> 75,–
B35,> 75,–
B36,–,50 to 75
B37,> 75,–
B38,> 75,–
B39,> 75,–
B40,> 75,–
B41,> 75,–
B42,> 75,–
B43,–,50 to 75
B44,–,50 to 75

Binder,peptide exchange yield (HLA-A*02:01 [1]) [%],peptide exchange yield (HLA-A*02:01 [2]) [%]
B45,–,50 to 75
B46,–,50 to 75
B47,> 75,–
B48,> 75,–
B49,> 75,–
B50,> 75,–
B51,–,50 to 75
B52,–,50 to 75
B53,> 75,–
B54,–,50 to 75
B55,> 75,–
B56,–,50 to 75
B57,> 75,–
B58,> 75,–
B59,–,50 to 75
B60,–,50 to 75
B61,> 75,–
B62,–,50 to 75
B63,> 75,–
B64,–,50 to 75
B65,> 75,–
B66,–,50 to 75
